Data from a protein production outcome set (Wang et al. 2014).

Assay: label from the status in PepcDB records

In the case of “MKVSVEIITGTFIDTDVSEDATVKQMKEKIAVEVKLPVTRLILVIGDEETRRLVMEDEDDMMLRDLGVGEDSHIYLFFKHPDLVSKEERSKGEDDDDPMEEVSSEAESGRGNEEEVEKAKIDGEEEDQAMKDEEEDRDVKVEEDEEEKEKEKDGEAKYVKEEAREVEEADNKQEN”, the protein production is reported as “failed”.

With “MKVTDVRLRKIQTDGRMKALVSITLDEAFVIHDLRVIEGNSGLFVAMPSKRTPDGEFRDIAHPINSDMRQEIQDAVMKVYDETD” the protein production was “not failed”.

For “MKVVPEKNAVRILWGRERGTRAMGAQRLLQELVEDKTRWMKWEGKRVELPDSPRSTFLLAFSPDRTLLASTHVNHNIYITEVKTGKCVHSLIGHRRTPWCVTFHPTISGLIASGCLDGEVRIWDLHGGSESWFTDSNNAIASLAFHPTAQLLLIATANEIHFWDWSRREPFAVVKTASEMERVRLVRFDPLGHYLLTAIVNPSNQQGDDEPEIPIDGTELSHYRQRALLQSQPVRRTPLLHNFLHMLSSRSSGIQVGEQSTVQDSATPSPPPPPPQPSTERPRTSAYIRLRQRVSYPTTVECCQHPGILCLCSRCAGTRVPSLLPHQDSVPPASARATTPSFSFVQTEPFHPPEQASSTQQDQGLLNRPSAFSTVQSSTAGNTLRNLSLGPTRRSLGGPLSSHPSRYHRELAPGLTGSEWTRTVLTLNSRSEVESMPPPRTSASSVSLLSVLRQQEGGSQASVYTSATEGRGFPSSGLATESDGGNGSSQNNSGNIRHELQCDLRRFFLEYDRLQELDQSLSGETPQTQQAQEMLNNNIESERPGPSHQPTPHSSENNSNLSRGHLNRCRACHNLLTFNNDTLRWERTTPNYSSGEASSSWHVSTTFEGMPPSGNQLPPLERTEGQMPNSSRLELSSSASSQEERTVGVAFNQETGHWERIYTQSSRSGTVSQEALHQDMPEESSEEDSLRRRLLESSLISLSRYDGAGSREHPIYPDPARLSPAAYYAQRMIQYLSRRDSIRQRSMRYQQNRLRSSTSSSSSDNQGPSVEGTDLEFEDFEDNGDRSRHRAPRNARMSAPSLGRFVPRRFLLPEYLPYAGIFHERGQPGLATHSSVNRVLAGAVIGDGQSAVASNIANTTYRLQWWDFTKFDLPEISNASVNVLVQNCKIYNDASCDISADGQLLAAFIPSSQRGFPDEGILAVYSLAPHNLGEMLYTKRFGKG”, the protein production was “failed”.

With “MKWVTYRSDHGERTGVLSGDAIYAMPPDVSLLDLVGRGADGLRTAGERAVRSPAAVVALDEVTLAAPIPRPPSIRDSLCFLDHMRNCQEAMGGGRVLMDTWYRIPAFYFACPSTVLGPYDDAPTAPGSAWQDFELEIAAVIGTSGKDLTVEQAERSIIGYTIFNDWSARDLQMLEGQLRIGQAKGKDSGITLGPYLVTPDELEPYCRGGKLSLRVIALVNGTVIGSGSTAQMDWSFGEVIAYASRGVTLTPGDVFGSGTVPTCTLVEHLRPPESFPGWLHDGDVVTLQVEGLGETRQTVRTSGTPFPLALRPNPDAEPDRRGVNPAPTRVPFTRGLHEVADRVWAWTLPDGGYGFSNAGLVAGDGASLLVDTLFDLALTREMLAAMKPVTERAPITDALITHSNGDHTHGTQLLDRSVRIIAAKGTSEEIEHGPAPEMLARIQTADLGPVATRYLRDRFGHFDFSGIKLRNADLTFDRDLAIELGGRRVDLLNLGPAHTTADSVVHVADAGVLFAGDLLFIGCTPIVWAGPIANWVAACDAMIALDAPTVVPGHGPVTGPDGIRAVRGYLAHIAEQAEAAYRKGLSLPEAVETIDLGEYASWLDSERVVVNVYQRYRELDPDTPRQDLLALLVMQAEWAARHCT” the protein production was “failed”.

For “MKWYEQPLHTLSHAQWEALCDGCGQCCLNQLLDEEDNLYSTDVACRLLDTKTASCSDYAHRSERVPACVTLTPDNLDEVYFMPASCAYRLRAEGQPLPQWHPLRHEGSKEPMKKAGYHVAGHCVSEAKFKGDLEDRIVTWPLS”, the protein production was “failed”.

In the case of “MKYCTLDDLILSFGQDEIYRLIATDQEAEKALDDAQAEIDMYLSDRYALPVKSVPKSLNRIACDIAHYYLYNSVDEDSTVYLRYKHRIKQLSDVAAGKLSLGLYDKSDDATTDNQVVFIKSSKKVFAR”, the protein production is reported as “not failed”.

In the case of “MKYIEPHFISFTQHTLKSQLIPKSFHGMKILQFSDLHLGYYFSLQHLSQVVSKINAVNPDIVLFTGDLIDNYQTYTDTPFVASILKNIQAPFGKFAIYGNHDHGGYGTEYYEHIMRESGFELLLNSKKRIRLMDNSEISIFGLDDILLGKPKIEKTLQHARQNTYNIVLVHEPDIAPQISKYPINLQLSGHSHGGQVQIPFLGAIITPSLAKDYIEGFYTMQDLTLYVNRGLGRTRVPFRFMSKPEITIFTLQHSLEHHHHHH”, the protein production is reported as “failed”.

In the case of “MKYLAGIVTFNPNIERLDQNIRAIYPQVSHIYIVDNGSKNKEEISQLVADYNEEGHLTVDYLTENKGIAYALNCIGQFAVAQEFDWFLTLDQDSVVLGDLIDNYENYLHLPKVGMLSCLYQDMNRENLVMQEFDYKEIEECITSAALMKTSVFEETSGFAEEMFIDFVDSEMNYRLSEMGYKTYQVNFIGLLHEIGHSSRVKKFGHVFHVLNHSPFRKYYMIRNAIYIIKKYGKKKRYKYLVFMRNEFVRVLVAEEQKSKKIVAMIKGLKDGLLMKVDKYGKLEHHHHHH”, the protein production is reported as “not failed”.

In the case of “MKYLHFTRPTIKVIFMINSIKTLLLIATLAILSACGWHFQQSVTMPSEWRTLALESDDSYNDFTVIMRRKLQENQVNVVNLEQNIPILRINKQITSDQVASIFKHGREAEKLLMLEVEATFRLANGESYPINAKVNRTFFDNARAALAKSEEREVIWNDMREQVARQLIVKIIALQNQIKRKLEHHHHHH”, the protein production is reported as “failed”.

With “MKYMIPDEEFIRREGVPITKEEIRAVSIGKLNLNKDDVVVDVGCGSGGMTVEIAKRCKFVYAIDYLDGAIEVTKQNLAKFNIKNCQIIKGRAEDVLDKLEFNKAFIGGTKNIEKIIEILDKKKINHIVANTIVLENAAKIINEFESRGYNVDAVNVFISYAKKIPSGHMFLAKNPITIIKAVR” the protein production was “not failed”.

With “MKYNKDGQTFLLVLDKGEDIVEVLTQFAMEQEMKFGSVSGIGACDNVTLIFYNLDTQKYESREVNEALELTSLLGNISHIDDKPFAHLHGTFGTRDFQTLSGHLTKAVVSATAEIVIQMTNLDVNRTHDEETGLNLLRP” the protein production was “failed”.
